Assay results from patent publication US9637764B2, “Methods of producing 7-carbon chemicals via carbon chain elongation associated with cyclohexane carboxylate synthesis” (INVISTA North America S.á r.l., priority 2012, dated 2017).

Legend:
Format in all cases: biochemical
[1] = Carboxylate reductase activity assay, pimelate to pimelate semialdehyde (NADPH consumption, absorbance at 340 nm); settings: purified enzyme enhanced by the gene product of sfp, 2 mM pimelate, 1 mM ATP, 1 mM NADPH, pH=7.5, room temperature, 20 min; against the empty vector control; FIG. 10
Method: A sequence encoding a HIS-tag was added to the genes from Segniliparus rugosus and Segniliparus rotundus that encode the carboxylate reductases of SEQ ID NOs: 4 and 7, respectively (see FIGS. 7C and 7F), such that N-terminal HIS tagged carboxylate reductases could be produced. Each of the modified genes was cloned into a pET Duet expression vector along with a sfp gene encoding a HIS-tagged phosphopantetheine transferase from Bacillus subtilis, both under the T7 promoter. Each expression vector was transformed into a BL21[DE3] E. coli host and the resulting recombinant E. coli strains were cultivated at 37° C. in a 250 mL shake flask culture containing 50 mL LB media and antibiotic selection pressure, with shaking at 230 rpm. Each culture was induced overnight at 37° C. using an auto-induction media.
The pellet from each induced shake flask culture was harvested via centrifugation. Each pellet was resuspended and lysed via sonication, and the cell debris was separated from the supernatant via centrifugation. […]
Enzyme activity assays (i.e., from pimelate to pimelate semialdehyde) were performed in triplicate in a buffer composed of a final concentration of 50 mM HEPES buffer (pH=7.5), 2 mM pimelate, 10 mM MgCl2, 1 mM ATP and 1 mM NADPH. […] The consumption of NADPH was monitored by absorbance at 340 nm.

[2] = Carboxylate reductase activity assay, pimelate semialdehyde to heptanedial (NADPH consumption, absorbance at 340 nm); settings: purified enzyme enhanced by the gene product of sfp, 2 mM pimelate semialdehyde, 1 mM ATP, 1 mM NADPH, pH=7.5, room temperature, 20 min; against the empty vector control; FIG. 13
Method: The N-terminal His-tagged carboxylate reductase of SEQ ID NO 7 (see Example 4 and FIG. 7F) was assayed using pimelate semialdehyde as substrate. The enzyme activity assay was performed in triplicate in a buffer composed of a final concentration of 50 mM HEPES buffer (pH=7.5), 2 mM pimelate semialdehyde, 10 mM MgCl2, 1 mM ATP and 1 mM NADPH. The enzyme activity assay reaction was initiated by adding purified carboxylate reductase and phosphopantetheine transferase or the empty vector control to the assay buffer containing the pimelate semialdehyde and then incubated at room temperature for 20 min. The consumption of NADPH was monitored by absorbance at 340 nm.

[3] = Carboxylate reductase activity assay, N7-acetyl-7-aminoheptanoate to N7-acetyl-7-aminoheptanal (NADPH consumption, absorbance at 340 nm); settings: purified enzyme enhanced by the gene product of sfp, 2 mM N7-acetyl-7-aminoheptanoate, 1 mM ATP, 1 mM NADPH, pH=7.5, room temperature, 20 min; against the empty vector control; FIG. 12
Method: The activity of each of the N-terminal His-tagged carboxylate reductases of SEQ ID NOs: 3, 6, and 7 (see Examples 4, and FIGS. 7B, 7E, and 7F) for converting N7-acetyl-7-aminoheptanoate to N7-acetyl-7-aminoheptanal was assayed in triplicate in a buffer composed of a final concentration of 50 mM HEPES buffer (pH=7.5), 2 mM N7-acetyl-7-aminoheptanoate, 10 mM MgCl2, 1 mM ATP, and 1 mM NADPH. The assays were initiated by adding purified carboxylate reductase and phosphopantetheine transferase or the empty vector control to the assay buffer containing the N7-acetyl-7-aminoheptanoate then incubated at room temperature for 20 min. The consumption of NADPH was monitored by absorbance at 340 nm.

B1: SEQ ID NO 7: Segniliparus rotundus carboxylate reductase, Genbank Accession No. ADG98140.1 (protein, listed as Segniliparus rotundus)
chain: MTQSHTQGPQASAAHSRLARRAAELLATDPQAAATLPDPEVVRQATRPGLRLAERVDAILSGYADRPALGQRSFQTVKDPITGRSSVELLPTFDTITYRELRERATAIASDLAHHPQAPAKPGDFLASIGFISVDYVAIDIAGVFAGLTAVPLQTGATLATLTAITAETAPTLFAASIEHLPTAVDAVLATPSVRRLLVFDYRAGSDEDREAVEAAKRKIADAGSSVLVDVLDEVIARGKSAPKAPLPPATDAGDDSLSLLIYTSGSTGTPKGAMYPERNVAHFWGGVWAAAFDEDAAPPVPAINITFLPLSHVASRLSLMPTLARGGLMHFVAKSDLSTLFEDLKLARPTNLFLVPRVVEMLYQHYQSELDRRGVQDGTREAEAVKDDLRTGLLGGRILTAGFGSAPLSAELAGFIESLLQIHLVDGYGSTEAGPVWRDGYLVKPPVTDYKLIDVPELGYFSTDSPHPRGELAIKTQTILPGYYKRPETTAEVFDEDGFYLTGDVVAQIGPEQFAYVDRRKNVLKLSQGEFVTLAKLEAAYSSSPLVRQLFVYGSSERSYLLAVIVPTPDALKKFGVGEAAKAALGESLQKIARDEGLQSYEVPRDFIIETDPFTVENGLLSDARKSLRPKLKEHYGERLEAMYKELADGQANELRDIRRGVQQRPTLETVRRAAAAMLGASAAEIKPDAHFTDLGGDSLSALTFSNFLHDLFEVDVPVGVIVSAANTLGSVAEHIDAQLAGGRARPTFATVHGKGSTTIKASDLTLDKFIDEQTLEAAKHLPKPADPPRTVLLTGANGWLGRFLALEWLERLAPAGGKLITIVRGKDAAQAKARLDAAYESGDPKLAGHYQDLAATTLEVLAGDFSEPRLGLDEATWNRLADEVDFISHPGALVNHVLPYNQLFGPNVAGVAEIIKLAITTRIKPVTYLSTVAVAAGVEPSALDEDGDIRTVSAERSVDEGYANGYGNSKWGGEVLLREAHDRTGLPVRVFRSDMILAHQKYTGQVNATDQFTRLVQSLLATGLAPKSFYELDAQGNRQRAHYDGIPVDFTAESITTLGGDGLEGYRSYNVFNPHRDGVGLDEFVDWLIEAGHPITRIDDYDQWLSRFETSLRGLPESKRQASVLPLLHAFARPGPAVDGSPFRNTVFRTDVQKAKIGAEHDIPHLGKALVLKYADDIKQLGLL
- carboxylate reductase activity for converting pimelate to pimelate semialdehyde [1]: accepted pimelate as substrate
- carboxylate reductase activity for converting pimelate semialdehyde to heptanedial [2]: accepted pimelate semialdehyde as substrate
- carboxylate reductase activity for converting N7-acetyl-7-aminoheptanoate to N7-acetyl-7-aminoheptanal [3]: accepted N7-acetyl-7-aminoheptanoate as substrate
